Results on 14 molecules are retold here after patent publication US20150147342A1 (published 2015).

Experiment in all cases: SPR, hIgG1 antibody captured, room temp
In general terms: In SPR one partner is held on a chip, and binding of the other changes the refractive index at the surface.

In test [1] the target is T1, Dimeric fibrinogen-like domain of human Ang-2 conjugated to human IgG1 (human).
T1 construct: also called Dimeric Human Ang-2FD; Human Ang-2FD-hFc
As for the experimental part:
(§1) Antibody was captured on a goat anti-mouse IgG polyclonal antibody surface, a goat anti-human κ polyclonal antibody (Southern Biotech, Birmingham, Ala.) surface or a goat anti-human IgG polyclonal antibody (Jackson Immuno Research Lab, West Grove, Pa.) surface created through direct amine coupling to a BIACORE™ CM5 sensor chip to form a captured antibody surface. […] Antigen-antibody binding and dissociation were monitored in real time at room temperature. Kinetic analysis was performed to calculate KD and half-life of antigen/antibody complex dissociation.
(§2) The above experiment was repeated using selected purified anti-Ang-2 antibodies cloned onto human IgG1.

Test [2] concerns the target T2, Dimeric fibrinogen-like domain of mouse (Mus musculus) Ang-2 conjugated to human IgG1 (mouse (Mus musculus)).
T2 construct: also called Dimeric Mouse Ang-2FD; Mouse Ang-2FD-hFc
As for the experimental part: as §1, §2

The target of test [3] is T3, Dimeric fibrinogen-like domain of monkey (Macca fascicularis) Ang-2 conjugated to human IgG1 (monkey (Macca fascicularis)).
T3 construct: also called Dimeric Monkey Ang-2FD; Monkey Ang-2FD-hFc
As for the experimental part: as §1, §2

T2 sequence (chain, as listed by the source limits assumed): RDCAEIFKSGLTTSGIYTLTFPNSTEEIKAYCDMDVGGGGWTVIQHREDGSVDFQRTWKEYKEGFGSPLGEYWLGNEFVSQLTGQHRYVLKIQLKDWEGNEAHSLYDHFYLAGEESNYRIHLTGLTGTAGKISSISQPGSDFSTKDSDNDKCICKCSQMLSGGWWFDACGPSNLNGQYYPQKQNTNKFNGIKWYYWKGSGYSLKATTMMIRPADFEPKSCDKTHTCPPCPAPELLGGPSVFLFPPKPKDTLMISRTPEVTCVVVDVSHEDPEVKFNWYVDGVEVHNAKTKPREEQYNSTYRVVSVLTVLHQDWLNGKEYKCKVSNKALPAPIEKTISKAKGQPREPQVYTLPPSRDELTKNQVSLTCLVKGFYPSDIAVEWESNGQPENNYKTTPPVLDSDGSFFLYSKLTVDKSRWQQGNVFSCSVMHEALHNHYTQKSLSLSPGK
T3 sequence (chain, as listed by the source limits assumed): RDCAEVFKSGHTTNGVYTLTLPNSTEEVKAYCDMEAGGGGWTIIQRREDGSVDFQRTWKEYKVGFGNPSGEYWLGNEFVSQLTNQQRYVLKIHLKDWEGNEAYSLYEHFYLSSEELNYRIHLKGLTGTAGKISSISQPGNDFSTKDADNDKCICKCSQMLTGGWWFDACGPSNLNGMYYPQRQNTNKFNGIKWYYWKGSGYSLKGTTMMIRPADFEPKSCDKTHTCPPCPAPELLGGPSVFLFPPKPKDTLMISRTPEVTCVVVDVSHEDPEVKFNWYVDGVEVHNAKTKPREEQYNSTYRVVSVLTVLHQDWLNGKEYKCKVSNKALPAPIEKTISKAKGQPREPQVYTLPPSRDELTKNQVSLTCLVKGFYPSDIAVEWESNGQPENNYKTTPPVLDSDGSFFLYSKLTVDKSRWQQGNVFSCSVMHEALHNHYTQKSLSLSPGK
T1 sequence (chain, as listed by the source limits assumed): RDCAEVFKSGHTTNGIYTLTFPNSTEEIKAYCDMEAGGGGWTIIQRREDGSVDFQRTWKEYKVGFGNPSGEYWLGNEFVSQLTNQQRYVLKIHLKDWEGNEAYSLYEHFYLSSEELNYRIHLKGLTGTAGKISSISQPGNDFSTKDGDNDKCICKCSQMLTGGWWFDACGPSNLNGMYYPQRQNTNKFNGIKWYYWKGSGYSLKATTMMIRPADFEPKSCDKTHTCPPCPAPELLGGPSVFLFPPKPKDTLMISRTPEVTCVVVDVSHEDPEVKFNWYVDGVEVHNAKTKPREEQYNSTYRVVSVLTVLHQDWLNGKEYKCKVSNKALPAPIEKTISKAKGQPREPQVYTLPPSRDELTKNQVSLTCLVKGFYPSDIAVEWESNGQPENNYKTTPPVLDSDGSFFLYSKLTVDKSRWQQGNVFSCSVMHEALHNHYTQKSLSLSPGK

B1: H1H743N (antibody, V domains shown)
VH: EVQLLESGGGLVQPGGSLRLSCAASGFTFRKYAMSWVRQAPGKGLEWVSVISVSGGNTYYADSVKGRFTISRDNSKNTLYLQLNSLRAEDTAVYYCAKDLTDIVLMVYVDYWGQGTLVTVSS
VL: DIQMTQSPSSVSASVGDRVTITCRASQDIDRWLAWYQQKPGKAPKLLIYAASSLQSGVPSRFSGSGSGTDFTLTISTLQPEDFATYYCQQANSLPFTFGGGTKVEIK
Turning to B1, the Kd (commonly the free concentration of one partner at which half of the binding sites on the other are occupied at equilibrium, for simple one-to-one binding) in test [1] amounted to 0.0882 nM; in test [2] it was 0.124 nM; in test [3], 0.0965 nM. For the same molecule, the “T1/2” value in test [1] is 4.23 h; in test [2], 3.88 h; in test [3], 13 h.

B2: H1H690P (antibody, V domains shown)
VH: EVQLVESGGGLVQPGESLRLSCAASGFTFSSYAMSWVRQGPGKGLEWVSSITGSGDTTYYADSVKGRFTISRDNSKNTLYLHMNSLRAEDTAVYYCAKDFLDYSTYLAFDLWGQGTMVTVSS
VL: EIVLTQSPATLSLSPGERATLSCRASQSVSSYLTWYQQKPGQAPRLLSYDASNRATGIPARFSGSGSGTDFTLTISSLEPEDFAVYYCQQRSNWPLTFGGGTKVEIK
For B2, the Kd in test [1] is 0.079 nM; in test [2], 0.0913 nM; in test [3], 0.0556 nM. The results for the “T1/2” value in test [1], in test [2] and in test [3] were 2.1 h, 1.75 h and 3.25 h, respectively.

B3: H1H691P (antibody, V domains shown)
VH: EVQLVESGGGLVQPGRSLRLSCAASGFTFDDYAMHWVRQAPGKGLEWVSGISWNSGDIGYADSVKGRFTISRDNAKNSLYLQMNSLRAQDTALYYCAKAYGDYYYFYGMDVWGQGTTVTVS
VL: EIVLTQSPGTLSLSPGERATLSCRASQSVSSSYLAWYQQKPGQAPRLLIFSASSRATGIPDRFSGSGSGTDFTLTISRLEPEDFAVYYCQQYDNSLTFGGGTKVEIK
For the molecule B3, the Kd in test [1] was 0.22 nM; in test [2] it was 0.22 nM; in test [3], 0.29 nM. The figures for the “T1/2” value in test [1], in test [2] and in test [3] were 0.642 h, 0.73 h and 0.683 h, respectively.

B4: H1H749N (antibody, V domains shown)
VH: QVQLVESGGGVVQPGRSLRLSCAASGFTFSSYGMHWVRQAPGKGLEWVAVIWYDEFNKYYADSVKGRFTISRDNSKNTLYLQMNSLRAEDTAVYYCARERESGYSYGFDYWGQGTLVTVSS
VL: EIVMTQSPATLSVSPGERATLSCRAGQSVSSNLAWYQQKPGQAPRLLIYGASTRATGIPARFSGSGSGTEFTLTISSLQSEDFAVYYCQQYNNWWTFGQGTKVEIK
As to B4, the Kd turned out to be 0.118 nM in test [1], 0.177 nM in test [2] and 0.407 nM in test [3]. For the same molecule, the “T1/2” value in test [1] came to 1.82 h; in test [2], 1.6 h; in test [3], 2.38 h.

B5: H1H728N (antibody, V domains shown)
VH: EVQLVESGGDLVQPGGSLRLSCTASGFTFSKYWMTWVRQAPGRGLEWVANIKEDGNEKYFLDSVKGRFTISRDNAKDLLFLQMNSLRGEDTAVYYCVRDRGIEVAGPFDYWGQGTLVTVSS
VL: DIQMTQSPSTLSASVGDRVTVTCRASQTIINWLAWYQQKPGKAPKLLISKASSLESGVPSRFSGSGSGTEFTLTISSLQPDDFATYYCQQYNRYWTFGQGTMVEIK
For the molecule B5, the Kd in test [1] came to 0.162 nM; in test [2], 5.76 nM; in test [3], 2 nM. Also, the “T1/2” value in test [1] stood at 1.35 h; in test [2], 0.333 h; in test [3] it was 1.28 h.

B6: H1H730N (antibody, V domains shown)
VH: EVQLVESGGGLVQPGGSLRLSCAASGFAFRSYWMTWVRQAPGKGLEWVANIQQDGNDKYYVDSVKGRFTISRDNAKNSLYLQMNSLRAEDTAVYYCARDTGIAEAGPFDYWGQGTLVTVSS
VL: DIQMTQSPSTLSASVGDRVSITCRASQTIISWLAWYQQKPGKAPRLLIYKASSLESGVPSRFSGSGSGTEFTLTINSLQPDDFATYYCQQYNRYWTFGQGTKVEIK
Regarding B6, the Kd was 0.234 nM in test [1], 0.0971 nM in test [2] and 3.4 nM in test [3]. The results for the “T1/2” value in test [1], in test [2] and in test [3] were 1.03 h, 1.5 h and 1.45 h, respectively.

B7: H1H724N (antibody, V domains shown)
VH: QVQLVESGGGVVQPGRSLRLSCAASGFTLSNYGMHWVRQAPGKGLEWVAVIWHDGSNTYYADSVKGRFTISRDNSKNTLYLQMNSLRAEDTAVYYCTREGLDFWSGYYPNWFDPWGQGTLVTVSS
VL: DIQMTQSPSSLSASVGDRVTITCRASQGIRNDLGWYQQKPGKAPKRLIYAASNLQGGVPSRFSGSGSGTEFTLTISSLQPEDFAAYYCLQHNIYPLTFGGGTKVEIK
As to B7, the Kd worked out at 0.115 nM in test [1], 0.185 nM in test [2] and 0.239 nM in test [3]. In addition, the “T1/2” value in test [1] was found to be 1.78 h; in test [2], 1.4 h; in test [3], 2.88 h.

B8: H1H732N (antibody, V domains shown)
VH: EVQLVESGGGLVRPGGSLRLSCAASGFTFTNAWMSWVRQAPGKGLEWIGQIKSKTDGGTIDYAAPVKGRFTVSRDDSENTLFLQMNSLKTEDTAVYYCAGNWNYVDFDYWGQGTLVTVSS
VL: DIQMTQSPSSLSASVGDRVTITCRASQDIRNDLGWYQQKPGKAPKRLIYAASSLQGGVPSRFSGSGSGTEFTLTISSLQPEDFATYYCLQHNSYPFTFGPGTKVDIK
For B8, the Kd was found to be 0.386 nM in test [1], 0.529 nM in test [2] and 0.439 nM in test [3]. The “T1/2” value in test [1] is 0.95 h; in test [2], 0.85 h; in test [3], 1.97 h.

B9: H1H750N (antibody, V domains shown)
VH: QVKLVESGGGVVQPGRSLRVSCAASGFTFSSYGMHWVRQAPGKGLEWLAIIWYDGDNKYYSDSVKGRFTISRDNSKNTLYLQMNSLRAEDTAEYYCVRDASIASRFLDYWGQGTLVTVSS
VL: DIQMTQSPSSLSASIGDRVTITCRATQDINNYLAWFQQKPGKAPKSLIYATSNLQSGVPSKFSGSGSGTDYTLTISSLQPEDFSTYYCQQYHSYPLTFGGGTKVEIK
For B9, the Kd in test [1] was 0.164 nM; in test [2], 0.218 nM; in test [3] it was 0.199 nM. In addition, the “T1/2” value in test [1] was found to be 2.12 h; in test [2], 2.02 h; in test [3], 4.07 h.

B10: H1H704P (antibody, V domains shown)
VH: QVQLVESGGDVVQPGRSLRLSCAASGFTFSSYGMHWVRQAPGKGLEWVAIIWYDGSNKYYADSVKGRFTISRDNSKNTLYLQMNSLRVEDTAVYSCARDFSISSRHFDYWGQGTLVTVSS
VL: DIQMTQSPSSLSASVGDRVTITCRASQAINNYLAWFQQKPGKAPKSLIYATSNLQSGVPSQFSGSGSGTDYTLTISSLQPEDFATYYCQQYYIYPITFGQGTRLEIK
In the case of B10, the Kd in test [1] amounted to 0.331 nM; in test [2], 0.484 nM; in test [3], 0.818 nM. For the same molecule, the results for the “T1/2” value in test [1], in test [2] and in test [3] were 1.43 h, 1.03 h and 0.558 h, respectively.

B11: H1H706P (antibody, V domains shown)
VH: QVQLVESGGGVVQPGRSLRLSCAASGFTFSSYGMHWVRQAPDKGLEWVAVKWDDGSNKYYADSVKGRFTISRDNSKNTLYLQMNSLRAEDTAVYYCAREGPYDFYSGYGAFDIWGQGTMVTVSS
VL: DIQMTQSPSSLSASVGDRVTITCRASQGISNYLAWFQQKPGKAPKSLIYAASSLQSGVPSKFSGSGSGTDFTLTISSLQPEDFATYYCQQYNSYPRTFGQGTKVEIK
As to B11, the Kd in test [1] was determined as 0.201 nM; in test [2], 0.357 nM; in test [3], 0.164 nM. For the same molecule, the “T1/2” value in test [1] was determined as 0.84 h; in test [2] it was 0.783 h; in test [3] it was 0.888 h.

B12: H1H693P (antibody, V domains shown)
VH: EVQLVESGGGLVQPGESLRLSCAASGFTFSSYAMSWVRQGPGKGLEWVSSISGSGGTTYYADSVEGRFTISRDNSKNTLYLHMNSLRAEDTAVYYCAKDFLDYSTYLAFDLWGQGTMVTVSS
VL: DIQMTQSPSSVSASVGDRVTITCRASQGISSWLAWYQQKPGKAPKLLIYAASSLQSGVPSRFSGSGSGTDFTLTISSLQPEDFATYYCQQANSFPRTFGQGTKVEIK
On to B12, for which the equilibrium dissociation constant (Kd) was 0.5 nM in test [1], 0.446 nM in test [2] and 1.17 nM in test [3]. In addition, the “T1/2” value in test [1] worked out at 0.618 h; in test [2] it was 1.06 h; in test [3], 0.293 h.

B13: H1H707P (antibody, V domains shown)
VH: QVQLVESGGGVVQPGRSLRLSCAASGFTFSSYGMHWVRQAPDKGLEWVAVKWDDGSNKYYADSVKGRFTISRDNSKNTLYLQMNSLRAEDTAVYYCAREGPYDFYSGYGAFDIWGQGTMVTVSS
VL: not shown
Regarding B13, the Kd in test [1] came out at 0.262 nM; in test [2] it was 0.328 nM; in test [3], 0.283 nM. Moreover, the “T1/2” value in test [1] turned out to be 0.443 h; in test [2], 0.573 h; in test [3], 0.372 h.

B14: H1H742N (antibody, V domains shown)
VH: DVQLLESGGDLVQPGGSLRLSCEASGFTFRNYVMIWVRQAPGKGLEWVSGISNSGGTTHYTDSVKGRFTISRDNSKNTLYLQINSLRAEDTAVYYCAKGYLDTSLIEGNWFDPWGQGTLVTVSS
VL: NIVMTQSPLSLPVTPGEPASISCRSSQSLLHSNGFNYLNWFLQKPGQSPQLLIYLGSNRASGVPDKFSGSGSGTDFTLNINRVEAEDVGIYFCMQTLQTPLTFGGGTKVEIK
Regarding B14, the Kd in test [1] came to 0.186 nM; in test [2], 0.276 nM; in test [3], 0.683 nM. The “T1/2” value in test [1] is 1.08 h; in test [2] it was 0.967 h; in test [3] it was 1.55 h.
